Results reported in US20060093602A1.

Target: gp130 on HepG2 B6 cells (UniProt P40189)
Test: cell-based or functional assay

Sequence of gp130 on HepG2 B6 cells (P40189 23-918 limits assumed): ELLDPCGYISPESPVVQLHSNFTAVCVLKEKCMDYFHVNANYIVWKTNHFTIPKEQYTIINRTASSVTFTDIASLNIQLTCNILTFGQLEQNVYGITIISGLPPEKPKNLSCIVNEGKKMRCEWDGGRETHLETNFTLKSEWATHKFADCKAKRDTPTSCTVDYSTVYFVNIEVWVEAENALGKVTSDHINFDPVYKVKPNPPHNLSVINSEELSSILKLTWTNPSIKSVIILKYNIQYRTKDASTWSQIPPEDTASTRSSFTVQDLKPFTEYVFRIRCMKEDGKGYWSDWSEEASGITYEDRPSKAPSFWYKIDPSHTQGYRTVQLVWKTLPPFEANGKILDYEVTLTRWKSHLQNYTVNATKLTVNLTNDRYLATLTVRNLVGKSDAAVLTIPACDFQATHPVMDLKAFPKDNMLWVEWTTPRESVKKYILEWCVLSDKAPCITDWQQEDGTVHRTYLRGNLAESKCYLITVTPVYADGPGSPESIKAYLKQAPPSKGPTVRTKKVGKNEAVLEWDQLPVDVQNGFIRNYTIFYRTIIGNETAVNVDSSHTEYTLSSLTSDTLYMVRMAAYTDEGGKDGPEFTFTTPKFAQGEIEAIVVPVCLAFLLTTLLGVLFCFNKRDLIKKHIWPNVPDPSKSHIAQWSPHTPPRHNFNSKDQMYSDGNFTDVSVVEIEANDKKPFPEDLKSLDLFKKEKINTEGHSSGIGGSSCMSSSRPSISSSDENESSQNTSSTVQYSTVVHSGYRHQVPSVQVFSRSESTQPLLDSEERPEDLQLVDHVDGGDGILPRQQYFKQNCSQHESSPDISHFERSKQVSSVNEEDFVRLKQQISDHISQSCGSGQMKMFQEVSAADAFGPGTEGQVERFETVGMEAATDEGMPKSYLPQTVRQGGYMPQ

“OSM-GST L13A (from UniProt P08515 1-218) (ligand)” was tested, and the EC50, sPAP, HepG2 B6, Expt 1 was 0.0657 µg/mL, the EC50, sPAP, HepG2 B6, Expt 2 was 0.0549 µg/mL and the EC50 as % of wild type, sPAP, HepG2 B6, Expt 1 was 269%. For the same substance, the EC50 as % of wild type, sPAP, HepG2 B6, Expt 2 was 171% and the mean EC50 as % of wild type, sPAP, HepG2 B6 was 220%.
